From patent US20180036395A1, “DOSAGE AND ADMINISTRATION OF MONOSPECIFIC AND BISPECIFIC ANTI-IGR-1R AND ANTI-ERBB3 ANTIBODIES” (Merrimack Pharmaceuticals, Inc., priority 2012, published 2018)

Columns and labels:
Assay type in all cases: in vivo, human
[1] = test system: gastrointestinal neuroendocrine tumors; assay: Treatment of patients with gastrointestinal neuroendocrine tumors
Method: (§1) P4-G1-M1.3 is formulated in 20 mM histidine, 100 mM arginine-HCl, 3% sucrose, at pH 5.5 supplemented with 0.002-0.02% of Tween® 80 at concentration range 5-15 mg/mL. P4-G1-M1.3 is administered to patients at 6 mg/kg, 12 mg/kg, 20 mg/kg, 30 mg/kg, 40 mg/kg, 50 mg/kg or 60 mg/kg q7d, ql4d, q21d, or q28d with a loading dose of 12 mg/kg, 20 mg/kg, 40 mg/kg, 40 mg/kg or 60 mg/kg Everolimus is administered to patients at 2.5 mg, 5 mg, or 10 mg orally once a day or once every other day.
(§2) Patients with gastrointestinal neuroendocrine tumors are treated by administration of either monotherapy with an effective amount of everolimus or an effective amount of P4-G1-M1.3, or with combination therapy comprising or consisting of administration of both the effective amount of everolimus and the effective amount of P4-G1-M1.3. P4-G1-M1.3 and everolimus are prepared and dosed as described in Example 1.
Patients with gastrointestinal neuroendocrine tumors are treated by administration of either monotherapy with an effective amount of mTOR inhibitor temsirolimus (Torisel®) or an effective amount of P4-G1-M1.3, or with combination therapy comprising or consisting of administration of both the effective amount of temsirolimus and the effective amount of P4-G1-M1.3. P4-G1-M1.3 is prepared and dosed as described in Example 1. Temsirolimus is dosed at 2.5 mg, 7.5 mg, 15 mg, or 25 mg (25 mg is the manufacturer's recommended dose) infused over a 30-60 minute period once a week.
Patients with gastrointestinal neuroendocrine tumors are treated by administration of either monotherapy with an effective amount of mTOR inhibitor sirolimus (Rapamune®) or an effective amount of P4-G1-M1.3, or with combination therapy comprising or consisting of administration of both the effective amount of sirolimus and the effective amount of P4-G1-M1.3. P4-G1-M1.3 is prepared and dosed as described in Example 1.

[2] = test system: non-small cell lung cancer (NSCLC); assay: Treatment of patients with non-small cell lung cancer; conditions: everolimus + P4-G1-M1.3
Method: as §1
as §2, with “non-small cell lung cancer (NSCLC)” for “gastrointestinal neuroendocrine tumors”

[3] = test system: locally advanced or metastatic breast cancer; assay: Treatment of patients with locally advanced or metastatic breast cancer
Method: as §1
Patients with estrogen receptor positive or progesterone receptor positive or triple negative breast cancers that are locally advanced or metastatic, or with any of the tumor types listed in Examples 5-10, are treated with a combination of an effective amount of i) any of the mTOR inhibitors of the preceding examples (at doses as described therein), or with a pan-mTOR inhibitor (INK128, CC223, OSI207, AZD8055, AZD2014, or Palomid529) and ii) an effective amount of P4-G1-M1.3. Patients are dosed with P4-G1-M1.3 as described in Example 1. The dose of pan-mTOR inhibitor is the dose used in phase I or, preferably phase II or III clinical trials.
Postmenopausal women with estrogen receptor-positive locally advanced or metastatic breast cancer are treated with a combination of an effective amount of PI3K inhibitor (e.g., XL147 or BKM120) and an effective amount of P4-G1-M1.3. Patients are dosed with P4-G1-M1.3 as described in Example 1. XL147 is dosed at 25, 50, 100, or 200 mg orally once a day for 21 consecutive days. Alternately BKM120 is dosed at […] orally once a day for 28 consecutive days.
Women with estrogen or progesterone receptor positive locally advanced or metastatic breast cancer are treated with a combination therapy comprising or consisting of administration of an effective amount of an antihormonal therapy (such as tamoxifen, exemestane, letrozole or fulvestrant) and administration of an effective amount of P4-G1-M1.3. P4-G1-M1.3 is formulated and administered as described above. Antihormonal therapy is administered in accordance with manufacturer's directions.
Women with estrogen or progesterone receptor positive locally advanced or metastatic breast cancer are treated with a combination of an effective amount of PI3K/mTOR dual inhibitor NVP-BEZ235 and an effective amount of P4-G1-M1.3. Patients are dosed with P4-G1-M1.3 as described in Example 1. NVP-BEZ235 is given orally twice daily at doses of 400 mg, 600 mg, or 800 mg.
Women with locally advanced or metastatic breast cancer are treated with a combination of an effective amount of docetaxel (Taxotere®) and an effective amount of P4-G1-M1.3. Patients are dosed with P4-G1-M1.3 as described in Example 1. Patients are dosed with docetaxel at 25, 50, 75 or 100 mg/m^2 i.v. once every 3 weeks or per standard clinical practice.
Patients with metastatic breast cancer are treated with a combination of an effective amount of paclitaxel (Taxol®) or of eribulin and an effective amount of P4-G1-M1.3. Patients are dosed with P4-G1-M1 as described in Example 1. Patients are dosed per standard clinical practice for paclitaxel or eribulin.

[4] = test system: pancreatic carcinoma; assay: Treatment of patients with pancreatic cancer
Method: as §1
Patients with pancreatic carcinoma are treated with a combination of an effective amount of gemcitabine, cytarabine, capecitabine, or 5-fluorouracil (5-FU) and an effective amount of P4-G1-M1.3. Patients are dosed with P4-G1-M1.3 as described in Example 1. Patients are dosed with the manufacturer's recommended dose of gemcitabine, capecitabine or 5-FU.
Patients with pancreatic cancer (KRAS wild-type and KRAS mutant) are treated with a combination of an effective amount of a MEK inhibitor (e.g., GSK1120212, BAY 86-9766 or AZD6244) and an effective amount of P4-G1-M1.3. Patients are dosed with P4-G1-M1.3 as described in Example 1. The clinical dose of MEK inhibitor is the dose used for that inhibitor in phase II or phase III clinical trials.

Measured: treatment outcome

B1: P4-G1-M1.3: anti-IGF-1R+anti-ErbB3 polyvalent bispecific antibody, IgG1-(scFv)2 (SEQ ID NO:148 and SEQ ID NO:149) (protein)
chain 1: EVQLLQSGGGLVQPGGSLRLSCAASGFLFSSYPMHWVRQAPGKGLEWVGSISPSGGATPYADSVKGRFTISRDNSKNTLYLQMNSLRPEDTAVYYCAKDFYNILTGNAFDKWGQGTSVTVSSASTGGGGSGGGGSGGGGSGGGGSDIQLTQSPSSLSASLGDRVTITCRASQGISSYLAWYQQKPGKAPKLLIYAGSTPQSGVPSRFSGSGSGTEFTLTISSLQPEDSGTYYCQQYWTWPLTFGGGTKVEIKRT
chain 2: EVQLVESGGGLVQPGRSLRLSCAASGFTFDDYAMHWVRQAPGKGLEWVSGISWNSGSTGYADSVKGRFTISRDNAKNSLYLQMNSLRAEDTALYYCARDLGYNQWLEGFDYWGQGTLVTVSSASTGGGGSGGGGSGGGGSGGGGSSSELTQDPAVSVALGQTVRITCQGDSLRSYYASWYQQKPGQAPVLVIYGKNNRPSGIPDRFSGSSSGNTASLTITGAQAEDEADYYCMSRDHPGNQWVFGGGTKVTVLG
modifications: Synthetic polypeptide:Anti-IGF-1R scFvs M76; Synthetic polypeptide:Anti-ErbB3 scFvs P6L
combinatorially enhanced outcome: [1]; everolimus + P4-G1-M1.3 | [1]; sirolimus + P4-G1-M1.3 | [1]; temsirolimus + P4-G1-M1.3 | [2] | [3]; ER or PR positive breast cancer, NVP-BEZ235 + P4-G1-M1.3 | [3]; ER or PR positive breast cancer, antihormonal therapy (tamoxifen, exemestane, letrozole or fulvestrant) + P4-G1-M1.3 | [3]; ER positive, PR positive or triple negative breast cancers (or tumor types of Examples 5-10), mTOR or pan-mTOR inhibitor + P4-G1-M1.3 | [3]; metastatic breast cancer, paclitaxel or eribulin + P4-G1-M1.3 | [3]; postmenopausal women, ER-positive breast cancer, PI3K inhibitor (XL147 or BKM120) + P4-G1-M1.3 | [3]; women with locally advanced or metastatic breast cancer, docetaxel + P4-G1-M1.3 | [4]; pancreatic cancer (KRAS wild-type and KRAS mutant), MEK inhibitor (GSK1120212, BAY 86-9766 or AZD6244) + P4-G1-M1.3 | [4]; patients with pancreatic carcinoma, gemcitabine, cytarabine, capecitabine, or 5-fluorouracil + P4-G1-M1.3
